From patent US12042530B2, “Target peptides for immunotherapy and diagnostics” (University of Virginia Patent Foundation, priority 2012, dated 2024)
Non-standard residues stand in square brackets, D forms with d. No end group written: not given here. pT = C[C@@H](OP(=O)(O)O)[C@H](N)C(=O)O; pS = N[C@@H](COP(=O)(O)O)C(=O)O

Biological target: T1, HLA-B*0702 (Homo sapiens, UniProt P01889)
T1 construct: endogenous in cells; host or cells: melanoma and/or leukemia cells
Experiment: Phosphopeptides presented in association with class I molecules (HLA-B*0702) on cancer cells: melanoma and/or leukemia
Parameters: key: Melanoma (M); Leukemia (L); L/M: Melanoma (M) and/or Leukemia (L)
Conditions: cancer type on which the HLA-B*0702 phosphopeptide is presented

Row | Substance | L/M
1 | 266 (APRKG[pS]FSALM; listed as Homo sapiens) [compound 266] | M
2 | 268 (APR[pS]PPPSRP; listed as Homo sapiens) [compound 268] | M
3 | 271 (FPH[pS]LLSVI; listed as Homo sapiens) [compound 271] | M
4 | 276 (GPRSA[pS]LL[pS]L; listed as Homo sapiens) [compound 276] | L
5 | 281 (KAR[pS]PGRAL; listed as Homo sapiens) [compound 281] | M
6 | 290 (KPRPPPL[pS]P; listed as Homo sapiens) [compound 290] | M
7 | 292 (KPR[pS]PPRAL; listed as Homo sapiens) [compound 292] | L/M
8 | 293 (KPR[pS]PPRALV; listed as Homo sapiens) [compound 293] | M
9 | 298 (LPIFSRL[pS]I; listed as Homo sapiens) [compound 298] | L
10 | 301 (MPRQP[pS]ATRL; listed as Homo sapiens) [compound 301] | M
11 | 316 (RPI[pS]PGLSY; listed as Homo sapiens) [compound 316] | L
12 | 335 (RPR[pS]PPPRAP; listed as Homo sapiens) [compound 335] | M
13 | 341 (RPSGRRE[pS]L; listed as Homo sapiens) [compound 341] | M
14 | 353 (RRL[pS]GPLHTL; listed as Homo sapiens) [compound 353] | M
15 | 369 (SPFKRQL[pS]L; listed as Homo sapiens) [compound 369] | M
16 | 373 (SPRER[pS]PAL; listed as Homo sapiens) [compound 373] | M

Results, then the substance that gave them:

Row | L/M | Substance
17 | M | 275 (GAQPGRH[pS]V; listed as Homo sapiens) [compound 275]
18 | M | 279 (HPR[pS]PTPTL; listed as Homo sapiens) [compound 279]
19 | M | 280 (HPRSP[pT]PTL; listed as Homo sapiens) [compound 280]
20 | L | 286 (KPP[pS]PSPIEM; listed as Homo sapiens) [compound 286]
21 | M | 294 (KPR[pS]PPRALVL; listed as Homo sapiens) [compound 294]
22 | M | 299 (LPK[pS]PPYTAF; listed as Homo sapiens) [compound 299]
23 | M | 300 (LPRGS[pS]PSVL; listed as Homo sapiens) [compound 300]
24 | M | 311 (RPA[pT]PTSQF; listed as Homo sapiens) [compound 311]
25 | M | 326 (RPRG[pS]QSLL; listed as Homo sapiens) [compound 326]
26 | M | 329 (RPRR[pS]STQL; listed as Homo sapiens) [compound 329]
27 | M | 332 (RPRSL[pS]SPTVTL; listed as Homo sapiens) [compound 332]
28 | L | 340 (RPRPV[pS]PSSL; listed as Homo sapiens) [compound 340]
29 | L | 345 (RPS[pT]PKSDSEL; listed as Homo sapiens) [compound 345]
30 | M | 354 (RRP[pS]YTLGM; listed as Homo sapiens) [compound 354]
31 | M | 355 (RR[pS][pS]FLQVF; listed as Homo sapiens) [compound 355]
32 | M | 357 (RR[pS]SQSWSL; listed as Homo sapiens) [compound 357]
33 | M | 362 (RSR[pS]PRPAL; listed as Homo sapiens) [compound 362]
34 | M | 364 (RTF[pS]PTYGL; listed as Homo sapiens) [compound 364]
35 | M | 365 (RTR[pS]PSPTL; listed as Homo sapiens) [compound 365]
36 | M | 372 (SPK[pS]PTAAL; listed as Homo sapiens) [compound 372]
